Tests used:
Assay in all cases: filter retardation assay
β-synuclein = β-synuclein (UniProt Q16143 1-134)
Procedure: (§1) Filter retardation assay was performed using a Minifold 48 slots (GE Healthcare Life Sciences). Each protein (50 μl) at a final concentration of 1 μg/ml was loaded into each slot on a nitrocellulose membrane that has been pre-soaked in PBS. Samples were allowed to absorb onto the nitrocellulose membrane and then slots were washed with 1 ml of PBS. Membranes were then probed with relevant antibodies, and developed with SuperSignal West Pico Chemiluminescent Substrate Kit.

mouse α-synuclein = mouse α-synuclein (mouse, UniProt O55042 1-140)
Procedure: as §1

γ-synuclein = γ-synuclein (UniProt O76070 1-127)
Sequence of γ-synuclein (O76070 whole entry): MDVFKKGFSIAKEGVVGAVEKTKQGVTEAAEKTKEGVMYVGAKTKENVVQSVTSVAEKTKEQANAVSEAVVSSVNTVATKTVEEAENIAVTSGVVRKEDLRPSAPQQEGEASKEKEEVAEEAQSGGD
Procedure: as §1

Sequence of β-synuclein (Q16143 whole entry): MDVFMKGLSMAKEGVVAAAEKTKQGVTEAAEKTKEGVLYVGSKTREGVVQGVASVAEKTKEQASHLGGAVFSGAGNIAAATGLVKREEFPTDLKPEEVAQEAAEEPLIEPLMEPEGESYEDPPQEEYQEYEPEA

B1: monoclonal antibody 4B1 produced by hybridoma 4B1 (ATCC Patent Deposit Number PTA-127017) (antibody, mouse IgG1, kappa, V domains shown)
VH: EVKLVESGGGLVQPGGSLKLSCAASGITFSSYTMSWVRQTPEKRLEWVGYISNGGGRTYYPDTVKGRFTISRDNAKNTLYLQMSSLKSEDTAMYYCARQITTAMGYYYAMDYWGQGTSVTVSS
VL: DVVMTQTPLSLPVSLGDQASISCRSSQSLVHSNGNTYLHWYLQKPGQSPKLLISKVSNRFSGVPDRFSGSGSGTDFTLKISRVEAEDLGVYFCSQSTHVPLTFGAGTKLELKR
notes: also called mAb 4B1; 4E1
- binding result (β-synuclein): no binding
- binding result (mouse α-synuclein): binds
- binding result (γ-synuclein): no binding

Reference: patent publication US20260209322A1 (HAMAD BIN KHALIFA UNIVERSITY, published 2026)
